T1: SigB (residues 1–262) (Bacillus subtilis strain 168, UniProt P06574 1-262)
T1 construct: RNA polymerase sigma-B factor SigB, Bacillus subtilis strain 168, residues 1-262; also called alternative sigma factor SigB; source: E. coli BL21 Star (DE3), co-expressed with RsbW (modified pETDuet-1), co-purified as RsbW–SigB complex
T1 sequence (looked up): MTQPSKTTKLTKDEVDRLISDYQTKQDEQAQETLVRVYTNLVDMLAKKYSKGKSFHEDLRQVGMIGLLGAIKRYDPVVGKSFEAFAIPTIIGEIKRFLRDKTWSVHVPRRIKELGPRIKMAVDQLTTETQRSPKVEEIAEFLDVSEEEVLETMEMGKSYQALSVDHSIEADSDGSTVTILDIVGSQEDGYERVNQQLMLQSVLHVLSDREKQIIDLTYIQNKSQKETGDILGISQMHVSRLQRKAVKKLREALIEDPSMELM

B1: RsbW (residues 1–160), co-expressed with RsbV (natural protein, Bacillus subtilis strain 168, UniProt P17904 1-160, looked up)
chain: MKNNADYIEMKVPAQPEYVGIIRLTLSGVASRMGYTYDEIEDLKIAVSEACTNAVQHAYKEDKNGEVSIRFGVFEDRLEVIVADEGDSFDFDQKQQDLGPYTPSHTVDQLSEGGLGLYLMETLMDEVRVQNHSGVTVAMTKYLNGERVDHDTTIKNYETN
notes: Serine-protein kinase / anti-sigma-B factor RsbW, Bacillus subtilis strain 168, residues 1-160 (called full-length); Four copies stand in the RsbV–RsbW octamer; also called full-length RsbW; anti-sigma factor RsbW

What was measured:
[1] = target: B1; assay: AF4-MALS; co-purified complexes or RsbW alone in phosphate-buffered saline pH 7.4; 50 µl injected; details: both partners purified
[2] = target: the molecule itself; assay: crystal structure; RsbV_(1–104)–RsbW_(5–145) complex; monoclinic crystals (25% PEG 1500, 100 mM SPG pH 8.5, 3.4 Å) and hexagonal crystals (20% PEG 3350, 200 mM potassium formate, excess ADP, 3.1 Å), 20°C
[3] = target: the molecule itself; assay: AF4-MALS; co-purified complexes or RsbW alone in phosphate-buffered saline pH 7.4; 50 µl injected
SigB (residues 1–262) = target: T1, SigB (residues 1–262); assay: as above; details: both partners purified

| Binder | stoichiometry N [3] | also measured |
| --- | --- | --- |
| RsbV (residues 1–109) (natural protein, Bacillus subtilis strain 168, UniProt P17903 1-109, looked up, Anti-anti-sigma-B factor RsbV, Bacillus subtilis strain 168, residues 1-109 (called full-length); Tag removed with TEV protease; also called full-length RsbV; anti-anti-sigma factor RsbV; source: E. coli BL21 Star (DE3); co-expressed with RsbW (modified pETDuet-1) or expressed alone (modified pET-28b); purified (HisTrap, TEV cleavage, SEC); not shown: His6, N-terminal, cleaved; thioredoxin, …) MNINVDVKQNENDIQVNIAGEIDVYSAPVLREKLVPLAEQGADLRICLKDVSYMDSTGLGVFVGTFKMVKKQGGSLKLENLSERLIRLFDITGLKDIIDISAKSEGGVQ |  | stoichiometry N [1]: 1 RsbV per RsbW |
| RsbW_(5–145) (residues 5–145) (domain or fragment, Bacillus subtilis strain 168, UniProt P17904 5-145, looked up, Residues 59–64 and 85–113 (monoclinic) or 86–109 (hexagonal) are not visible in the crystal structures; also called truncated RsbW) ADYIEMKVPAQPEYVGIIRLTLSGVASRMGYTYDEIEDLKIAVSEACTNAVQHAYKEDKNGEVSIRFGVFEDRLEVIVADEGDSFDFDQKQQDLGPYTPSHTVDQLSEGGLGLYLMETLMDEVRVQNHSGVTVAMTKYLNG |  | stoichiometry N [2]: 4 |
| RsbW (residues 1–160), expressed alone (natural protein, Bacillus subtilis strain 168, UniProt P17904 1-160, looked up, Anti-sigma-B factor RsbW, Bacillus subtilis strain 168, residues 1-160; 'RsbV and RsbW alone were similarly expressed and purified following the same procedures'; also called RsbW alone; source: E. coli BL21 Star (DE3), modified pET-28b, purified (HisTrap, TEV cleavage, Superdex 75 SEC); not shown: His6, N-terminal, cleaved; thioredoxin, N-terminal, cleaved) MKNNADYIEMKVPAQPEYVGIIRLTLSGVASRMGYTYDEIEDLKIAVSEACTNAVQHAYKEDKNGEVSIRFGVFEDRLEVIVADEGDSFDFDQKQQDLGPYTPSHTVDQLSEGGLGLYLMETLMDEVRVQNHSGVTVAMTKYLNGERVDHDTTIKNYETN | 4 |  |
| B1 | 4 |  |
| RsbW (residues 1–160), co-expressed with SigB (natural protein, Bacillus subtilis strain 168, UniProt P17904 1-160, looked up, Anti-sigma-B factor RsbW, Bacillus subtilis strain 168, residues 1-160; source: E. coli BL21 Star (DE3), co-expressed with SigB (modified pETDuet-1), co-purified as RsbW–SigB complex) MKNNADYIEMKVPAQPEYVGIIRLTLSGVASRMGYTYDEIEDLKIAVSEACTNAVQHAYKEDKNGEVSIRFGVFEDRLEVIVADEGDSFDFDQKQQDLGPYTPSHTVDQLSEGGLGLYLMETLMDEVRVQNHSGVTVAMTKYLNGERVDHDTTIKNYETN | 4 | stoichiometry N (SigB (residues 1–262)): 2 RsbW per SigB |

Reference: PMC7340262, “Structural insights into the regulation of SigB activity by RsbV and RsbW” (IUCrJ, 2020)
